Article PMC13276077

Experiments:
[1] = target: MeCP2 full-length, e2 isoform (Homo sapiens, UniProt P51608 1-486); test: EMSA; 20 mM HEPES pH 7.5, 75 mM NaCl, 125 mM KCl, 50 uM EDTA, 2.5 mM beta-mercaptoethanol, 5% glycerol, BSA, 1.58 uM 47 bp competitor DNA (nucleosome assays; absent with free DNA), room temperature 30 min; conditions: protein: recombinant; tags: none; label: 5' 6-FAM; blunt
[2] = target: MeCP2 full-length, e2 isoform;histone octamer (Homo sapiens;, UniProt P51608;P0C0S8;P62807;P68431;P62805 1-486;2-130;2-126;2-136;2-103, |H2B T115C;H3.1 C96S;C110A); test: EMSA; 20 mM HEPES pH 7.5, 75 mM NaCl, 125 mM KCl, 50 uM EDTA, 2.5 mM beta-mercaptoethanol, 5% glycerol, BSA, 1.58 uM 47 bp competitor DNA (nucleosome assays); absent w

B1: 15-N601-15 free DNA -1 meCpG (dsDNA)
DNA 1: ATGGAACACATTGCACAGGATGTATATATCTGACACGTGCCTGGAGACTAGGGAGTAATCCCCTTGGCGGTTAAAACGCGGGGGACAGCGCGTACGTGCGTTTAAGCGGTGCTAGAGCTGTCTACGACCAATTGAGCGGCCTCGGCACCGGGATTCTCCAGGGCGGCCGCGTATT
DNA 2: AATACGCGGCCGCCCTGGAGAATCCCGGTGCCGAGGCCGCTCAATTGGTCGTAGACAGCTCTAGCACCGCTTAAACGCACGTACGCGCTGTCCCCCGCGTTTTAACCGCCAAGGGGATTACTCCCTAGTCTCCAGGCACGTGTCAGATATATACATCCTGTGCAATGTGTTCCAT
modifications: meCpG at -1
Kd [1]: 45.3 ± 2 nM

B2: N601 nucleosome core particle -61 meCpG (nucleosome)
DNA 1: CAGGATGTATATATCTGACACGTGCCTGGAGACTAGGGAGTAATCCCCTTGGCGGTTAAAACGCGGGGGACAGCGCGTACGTGCGTTTAAGCGGTGCTAGAGCTGTCTACGACCAATTGAGCGGCCTCGGCACCGGGATTCTCCA
DNA 2: TGGAGAATCCCGGTGCCGAGGCCGCTCAATTGGTCGTAGACAGCTCTAGCACCGCTTAAACGCACGTACGCGCTGTCCCCCGCGTTTTAACCGCCAAGGGGATTACTCCCTAGTCTCCAGGCACGTGTCAGATATATACATCCTG
modifications: meCpG at -61
binding result [2]: no binding

B3: 16-N603-30 +91 CG nucleosome 91 meCpG (nucleosome)
DNA 1: GAGCCACAAAACCGGCGACGCTCACGGGTGCCCAGTTCGCGCGCCCACCTACCGTGTGAAGTCGTCACTCGGGCTTCTAAGTACGCTTAGCGCACGGTAGAGCGCAATCCAAGGCTAACCACCGTGCATCGATGTTGAAAGAGGCCCTCCGTCCTTATTACTTCAAGTCCCTGGGGTACCCGTTTCACTGCCA
DNA 2: TGGCAGTGAAACGGGTACCCCAGGGACTTGAAGTAATAAGGACGGAGGGCCTCTTTCAACATCGATGCACGGTGGTTAGCCTTGGATTGCGCTCTACCGTGCGCTAAGCGTACTTAGAAGCCCGAGTGACGACTTCACACGGTAGGTGGGCGCGCGAACTGGGCACCCGTGAGCGTCGCCGGTTTTGTGGCTC
modifications: meCpG at 91
Kd [2]: 71.3 nM

B4: 16-N603-30 +81 CG nucleosome 81 meCpG (nucleosome)
DNA 1: GAGCCACAAAATCACCGACGCCCGGGGGTGCCCAGTTCGCGCGCCCACCTACCGTGTGAAGTCGTCACTCGGGCTTCTAAGTACGCTTAGCGCACGGTAGAGCGCAATCCAAGGCTAACCACCGTGCATCGATGTTGAAAGAGGCCCTCCGTCCTTATTACTTCAAGTCCCTGGGGTACCCGTTTCACTGCCA
DNA 2: TGGCAGTGAAACGGGTACCCCAGGGACTTGAAGTAATAAGGACGGAGGGCCTCTTTCAACATCGATGCACGGTGGTTAGCCTTGGATTGCGCTCTACCGTGCGCTAAGCGTACTTAGAAGCCCGAGTGACGACTTCACACGGTAGGTGGGCGCGCGAACTGGGCACCCCCGGGCGTCGGTGATTTTGTGGCTC
modifications: meCpG at 81
Kd [2]: 65.5 nM

B5: N601-15 nucleosome 81 meCpA (nucleosome)
DNA 1: ATGGAACACATTGCACAGGATGTATATATCTGACACGTGCCTGGAGACTAGGGAGTAATCCCCTTGGCGGTTAAAACGCGGGGGACAGCGCGTACGTGCGTTTAAGCGGTGCTAGAGCTGTCTACGACCAATTGAGCGGCCTCGGCACCGGGATTCTCCA
DNA 2: TGGAGAATCCCGGTGCCGAGGCCGCTCAATTGGTCGTAGACAGCTCTAGCACCGCTTAAACGCACGTACGCGCTGTCCCCCGCGTTTTAACCGCCAAGGGGATTACTCCCTAGTCTCCAGGCACGTGTCAGATATATACATCCTGTGCAATGTGTTCCAT
modifications: asymmetric meCpA at 81
Kd [2]: 357 nM

B6: N601-15 nucleosome (single 15 bp linker) (nucleosome)
DNA 1: ATGGAACACATTGCACAGGATGTATATATCTGACACGTGCCTGGAGACTAGGGAGTAATCCCCTTGGCGGTTAAAACGCGGGGGACAGCGCGTACGTGCGTTTAAGCGGTGCTAGAGCTGTCTACGACCAATTGAGCGGCCTCGGCACCGGGATTCTCCA
DNA 2: TGGAGAATCCCGGTGCCGAGGCCGCTCAATTGGTCGTAGACAGCTCTAGCACCGCTTAAACGCACGTACGCGCTGTCCCCCGCGTTTTAACCGCCAAGGGGATTACTCCCTAGTCTCCAGGCACGTGTCAGATATATACATCCTGTGCAATGTGTTCCAT
Kd [2]: 419 nM
